Non-standard residues stand in square brackets, D forms with d. No end group written: not given here. αMePhe(2-F) = C[C@](N)(Cc1ccccc1F)C(=O)O; Aib = CC(C)(N)C(=O)O
B1: Example 386 (peptide)
chain: YXQGTXTSDYSILLDKKAQXAFIEYLLEGGPSSGAPPPE
modifications: not fully specified; synthetic construct; SITE 2: note = 2-Aminoisobutyric Acid; SITE 6: note = alpha-methyl-2-fluoro-L-phenylalanine; SITE 17: note = Lysine is chemically modified through conjugation of the epsilon-amino group of the Lysine side chain with (2-[2-(2-Amino-ethoxy)-ethoxy]-acetyl)2-(gamma-Glu)-CO-(CH2 )18
B2: Example 388 (peptide)
chain: YXQGTXTSDYSILLDKKAQXAFIEYLEEGGPSSGAPPPE
modifications: not fully specified; synthetic construct; SITE 2: note = 2-Aminoisobutyric Acid; SITE 6: note = alpha-methyl-2-fluoro-L-phenylalanine; SITE 17: note = Lysine is chemically modified through conjugation of the epsilon-amino group of the Lysine side chain with (2-[2-(2-Amino-ethoxy)-ethoxy]-acetyl)-(gamma-Glu)-CO-(CH2) 16-
B3: Example 368 (peptide)
chain: YXQGTXTSDYXIXLDXKAQXXFIEXLLEGGPSSGEPPPS
modifications: synthetic construct; SITE 2: note = 2-Aminoisobutyric Acid; SITE 6: note = alpha-methyl-2-fluoro-L-phenylalanine; SITE 11: note = alpha-methyl-L-serine; SITE 13: note = alpha-methyl-leucine; SITE 16: note = L-ornithine; SITE 17: note = Lysine is chemically modified through conjugation of the epsilon
B4: Example 384 (peptide)
chain: YXQGTXTSDYXIXLDXKAQXXFIEYLLEGGPSSGAPPPS
modifications: synthetic construct; SITE 2: note = 2-Aminoisobutyric Acid; SITE 6: note = alpha-methyl-2-fluoro-L-phenylalanine; SITE 11: note = alpha-methyl-L-serine; SITE 13: note = alpha-methyl-leucine; SITE 16: note = L-ornithine; SITE 17: note = Lysine is chemically modified through conjugation of the epsilon
B5: Example 381 (peptide)
chain: HXQGTXTSDYXIXLDXKAQXAFIEYLLEGGPSSGEPPPE
modifications: synthetic construct; SITE 2: note = 2-Aminoisobutyric Acid; SITE 6: note = alpha-methyl-2-fluoro-L-phenylalanine; SITE 11: note = alpha-methyl-L-serine; SITE 13: note = alpha-methyl-leucine; SITE 16: note = L-ornithine; SITE 17: note = Lysine is chemically modified through conjugation of the epsilon
B6: Example 378 (peptide)
chain: YXQGTXTSDXXIXLDXKAQXXFIEXLIEGGPSSGEPPPE
modifications: synthetic construct; SITE 2: note = 2-Aminoisobutyric Acid; SITE 6: note = alpha-methyl-2-fluoro-L-phenylalanine; SITE 10: note = 3-(4-Pyridyl)-L-alanine; SITE 11: note = alpha-methyl-L-serine; SITE 13: note = alpha-methyl-leucine; SITE 16: note = L-ornithine; SITE 17: note = Lysine is chemically mo
B7: Example 389 (peptide)
chain: YXQGTXTSDYXSXLDXKAQXXFIEXLLEGGPSSGEPPPE
modifications: synthetic construct; SITE 2: note = 2-Aminoisobutyric Acid; SITE 6: note = alpha-methyl-L-phenylalanine; SITE 11: note = alpha-methyl-L-serine; SITE 13: note = alpha-methyl-leucine; SITE 16: note = L-ornithine; SITE 17: note = Lysine is chemically modified through conjugation of the epsilon-amino gr
B8: Example 375 (peptide)
chain: YXQGTXTSDXXIXLDXKAQXXFIEXLIEGGPSSGEPPPS
modifications: synthetic construct; SITE 2: note = 2-Aminoisobutyric Acid; SITE 6: note = alpha-methyl-2-fluoro-L-phenylalanine; SITE 10: note = 3-(4-Pyridyl)-L-alanine; SITE 11: note = alpha-methyl-L-serine; SITE 13: note = alpha-methyl-leucine; SITE 16: note = L-ornithine; SITE 17: note = Lysine is chemically mo
B9: Example 390 (peptide)
chain: YXQGTXTSDYXSLLDXKAQXXFIEXLLEGGPSSGEPPPE
modifications: synthetic construct; SITE 2: note = 2-Aminoisobutyric Acid; SITE 6: note = alpha-methyl-L-phenylalanine; SITE 11: note = alpha-methyl-L-serine; SITE 16: note = L-ornithine; SITE 17: note = Lysine is chemically modified through conjugation of the epsilon-amino group of the Lysine side chain with (2-[
B10: Example 391 (peptide)
chain: YXQGTXTSDYXIXLDXKAQXXFIEYLLEGGPSSGEPPPE
modifications: synthetic construct; SITE 2: note = 2-Aminoisobutyric Acid; SITE 6: note = alpha-methyl-L-phenylalanine; SITE 11: note = alpha-methyl-L-serine; SITE 13: note = alpha-methyl-leucine; SITE 16: note = L-ornithine; SITE 17: note = Lysine is chemically modified through conjugation of the epsilon-amino gr
B11: Example 373 (peptide)
chain: YXQGTXTSDXSIXLDXKAQXXFIEXLLEGGPSSXEPPPE
modifications: synthetic construct; SITE 2: note = 2-Aminoisobutyric Acid; SITE 6: note = alpha-methyl-2-fluoro-L-phenylalanine; SITE 10: note = 3-(4-Pyridyl)-L-alanine; SITE 13: note = alpha-methyl-leucine; SITE 16: note = L-ornithine; SITE 17: note = Lysine is chemically modified through conjugation of the epsil

Key:
Experiment in all cases: cell-based or functional assay
[1] = target: human glucagon receptor (human) (UniProt P47871)
[2] = target: T1, human GIP receptor (human) (UniProt P48546)
T1 sequence (looked up): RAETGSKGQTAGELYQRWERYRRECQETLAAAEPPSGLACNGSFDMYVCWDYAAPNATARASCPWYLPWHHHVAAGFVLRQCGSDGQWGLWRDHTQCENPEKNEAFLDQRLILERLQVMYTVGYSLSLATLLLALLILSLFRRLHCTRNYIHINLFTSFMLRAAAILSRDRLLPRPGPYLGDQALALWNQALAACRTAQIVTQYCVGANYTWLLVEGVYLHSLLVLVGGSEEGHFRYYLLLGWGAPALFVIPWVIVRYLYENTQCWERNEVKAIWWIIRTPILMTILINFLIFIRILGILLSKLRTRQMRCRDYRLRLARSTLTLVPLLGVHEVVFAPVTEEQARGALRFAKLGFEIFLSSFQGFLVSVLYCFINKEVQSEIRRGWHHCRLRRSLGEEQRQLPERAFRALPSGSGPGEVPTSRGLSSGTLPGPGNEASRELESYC

hGLP-1R = hGLP-1R (Homo sapiens, UniProt P43220)
Sequence of hGLP-1R (P43220 24-463): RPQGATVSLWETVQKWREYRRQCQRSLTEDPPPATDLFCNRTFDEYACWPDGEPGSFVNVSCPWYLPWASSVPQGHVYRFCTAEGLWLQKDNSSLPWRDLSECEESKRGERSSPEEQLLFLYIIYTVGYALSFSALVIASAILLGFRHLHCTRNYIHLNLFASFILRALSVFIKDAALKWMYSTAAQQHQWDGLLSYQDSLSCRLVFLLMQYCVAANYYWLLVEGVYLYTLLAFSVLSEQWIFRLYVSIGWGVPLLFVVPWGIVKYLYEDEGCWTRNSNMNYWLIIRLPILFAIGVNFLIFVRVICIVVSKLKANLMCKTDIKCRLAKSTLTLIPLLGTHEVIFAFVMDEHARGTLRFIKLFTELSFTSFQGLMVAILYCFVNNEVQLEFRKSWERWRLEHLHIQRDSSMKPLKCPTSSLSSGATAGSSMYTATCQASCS

Sequence of human glucagon receptor (human) (P47871 26-477): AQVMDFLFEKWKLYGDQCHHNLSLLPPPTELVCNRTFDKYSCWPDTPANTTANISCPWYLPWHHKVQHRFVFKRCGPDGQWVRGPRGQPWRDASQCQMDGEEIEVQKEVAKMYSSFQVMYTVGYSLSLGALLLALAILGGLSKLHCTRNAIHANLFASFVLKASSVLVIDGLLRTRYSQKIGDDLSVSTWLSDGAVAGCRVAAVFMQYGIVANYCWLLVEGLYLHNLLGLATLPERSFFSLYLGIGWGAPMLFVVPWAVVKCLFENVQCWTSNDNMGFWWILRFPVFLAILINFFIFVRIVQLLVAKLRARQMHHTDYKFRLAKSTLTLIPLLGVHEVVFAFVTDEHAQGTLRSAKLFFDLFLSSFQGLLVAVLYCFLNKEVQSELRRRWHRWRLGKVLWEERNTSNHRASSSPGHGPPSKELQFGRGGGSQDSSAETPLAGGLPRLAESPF

| Binder | Relative cAMP EC50 [1] [nM] | cAMP Rel EC50, nM (1% HSA) [1] [nM] | Relative cAMP EC50 [2] [nM] | cAMP Rel EC50, nM (1% HSA) [2] [nM] | Relative cAMP EC50 (hGLP-1R) [nM] | cAMP Rel EC50, nM (1% HSA) (hGLP-1R) [nM] |
| --- | --- | --- | --- | --- | --- | --- |
| Y[Aib]QGT[αMePhe(2-F)]TSDYSKILDKIAQKAFIQYLIEGGPSSGEPPPSEG-NH2 (not fully specified (residue 20)) [Example 354] | 7.91 | 1440 | 0.134 | 23.8 | 1.21 | 175 |
| B1 | 1.7 | 734 | 0.0156 | 5.62 | 0.278 | 98.6 |
| B2 | 2.15 | 603 | 0.0462 | 14.1 | 0.373 | 52.5 |
| Y[Aib]QGT[αMePhe(2-F)]TSDYSKILDKIAQKAFIEYLIEGGPSSGAPPPSEG-NH2 (not fully specified (residue 20)) [Example 355] | 5.87 | 3430 | 0.0811 | 33.2 | 1.01 | 351 |
| B3 | 0.481 | 111 | 0.0121 | 2.62 | 0.242 | 37.4 |
| B4 | 5.77 | 1730 | 0.0152 | 3.63 | 0.133 | 19.3 |
| B5 | 1.39 | 176 | 0.0156 | 7.01 | 0.157 | 24.5 |
| B6 | 1.45 | 176 | 0.0213 | 2.15 | 0.251 | 18.8 |
| B7 | 4.03 | 889 | 0.0354 | 18.3 | 0.134 | 18.9 |
| B8 | 1.32 | 137 | 0.0165 | 1.78 | 0.299 | 18 |
| B9 | 3.08 | 549 | 0.122 | 37.8 | 0.134 | 19.6 |
| B10 | 3.04 | 808 | 0.0298 | 11.5 | 0.199 | 34.4 |
| B11 | 4.48 | 666 | 0.0183 | 1.97 | 0.392 | 54.5 |

Reference: patent US20240270821A1, “GIP/GLP1/GCG TRI-RECEPTOR AGONISTS AND USES THEREOF” (priority 2023, published 2024)
